B1: scFv 26292 (scFv, V domains shown)
VH: QVQLQQPGAELVRPGASVKLSCKASGYTFTSYWMNWVKQRPDQGLEWIGRIDPYDSETHYNQKFKDKAILTVDKSSSTAYMQLSSLTSEDSAVYYCARGNWDDYWGQGTTLTVSS
VL: DVQITQSPSYLAASPGETITINCRASKSISKDLAWYQEKPGKTNKLLIYSGSTLQSGIPSRFSGSGSGTDFTLTISSLEPEDFAMYYCQQHNKYPYTFGGGTKLEIK
notes: Tested as an scFv in periplasmic extract of TG1 (pCANTAB 5E vector)
B2: 6G3 (scFv, V domains shown)
VH: QVQLQQPGAELVRPGASVKLSCKASGYTFTSYWMNWVKQRPDQGLEWIGRIDPYDSETHYNQKFKDKAILTVDKSSSTAYMQLSSLTSEDSAVYYCARGNWDDYWGQGTTLTVSS
VL: DVQITQSPSYLAASPGETITINCRASKSISKDLAWYQEKPGKTNKLLIYSSSRLSSGIPSRFSGSGSGTDFTLTISSLEPEDFAMYYCQQHNKYPYTFGGGTKLEIK
notes: also called 抗体6G3
B3: 6G9 (scFv, V domains shown)
VH: QVQLQQPGAELVRPGASVKLSCKASGYTFTSYWMNWVKQRPDQGLEWIGRIDPYDSETHYNQKFKDKAILTVDKSSSTAYMQLSSLTSEDSAVYYCARGNWDDYWGQGTTLTVSS
VL: DVQITQSPSYLAASPGETITINCCASNSINKDLIWYQEKPGKTNKLLIYSGSTLQSGIPSRFSGSGSGTDFTLTISSLEPEDFAMYYCQQHNKYPYTFGGGTKLEIK
B4: 7G8 (scFv, V domains shown)
VH: QVQLQQPGAELVRPGASVKLSCKASGYTFTSYWMNWVKQRPDQGLEWIGRIDPYDSETHYNQKFKDKAILTVDKSSSTAYMQLSSLTSEDSAVYYCARGNWDDYWGQGTTLTVSS
VL: DVQITQSPSYLAASPGETITINCRASKSISKDLAWYQEKPGKTNKLLIYDASRRGSGIPSRFSGSGSGTDFTLTISSLEPEDFAMYYCQQHNKYPYTFGGGTKLEIK
notes: also called 抗体7G8
B5: 7F1 (scFv, V domains shown)
VH: QVQLQQPGAELVRPGASVKLSCKASGYTFTSYWMNWVKQRPDQGLEWIGRIDPYDSETHYNQKFKDKAILTVDKSSSTAYMQLSSLTSEDSAVYYCARGNWDDYWGQGTTLTVSS
VL: DVQITQSPSYLAASPGETITINCRASKSISKDLAWYQEKPGKTNKLLIYSGSTLQSGIPSRFSGSGSGTDFTLTISSLEPEDFAMYYCQQSNKYPYTFGGGTKLEIK
notes: also called 抗体7F1
B6: 2D2 (scFv, V domains shown)
VH: QVQLQQPGAELVRPGASVKLSCKASGYKFQSYWMNWVKQRPDQGLEWIGRIDPYDSETHYNQKFKDKAILTVDKSSSTAYMQLSSLTSEDSAVYYCARGNWDDYWGQGTTLTVSS
VL: DVQITQSPSYLAASPGETITINCRASKSISKDLAWYQEKPGKTNKLLIYSGSTLQSGIPSRFSGSGSGTDFTLTISSLEPEDFAMYYCQQHNKYPYTFGGGTKLEIK
notes: also called 抗体2D2
B7: 4A6 (scFv, V domains shown)
VH: QVQLQQPGAELVRPGASVKLSCKASGYTFQSYWMNWVKQRPDQGLEWIGRIDPYDSETHYNQKFKDKAILTVDKSSSTAYMQLSSLTSEDSAVYYCARGNWDDYWGQGTTLTVSS
VL: DVQITQSPSYLAASPGETITINCRASKSISKDLAWYQEKPGKTNKLLIYSGSTLQSGIPSRFSGSGSGTDFTLTISSLEPEDFAMYYCQQHNKYPYTFGGGTKLEIK
B8: 2C5 (scFv, V domains shown)
VH: QVQLQQPGAELVRPGASVKLSCKASGYTFTQYWMNWVKQRPDQGLEWIGRIDPYDSETHYNQKFKDKAILTVDKSSSTAYMQLSSLTSEDSAVYYCARSQVSDYWGQGTTLTVSS
VL: DVQITQSPSYLAASPGETITINCRASKSISKDLAWYQEKPGKTNKLLIYSGSTLQSGIPSRFSGSGSGTDFTLTISSLEPEDFAMYYCQQHNKYPYTFGGGTKLEIK
B9: 3F8 (scFv, V domains shown)
VH: QVQLQQPGAELVRPGASVKLSCKASGYTFTQYWMNWVKQRPDQGLEWIGRIDPYDSETHYNQKFKDKAILTVDKSSSTAYMQLSSLTSEDSAVYYCARGISQDFWGQGTTLTVSS
VL: DVQITQSPSYLAASPGETITINCRASKSISKDLAWYQEKPGKTNKLLIYSGSTLQSGIPSRFSGSGSGTDFTLTISSLEPEDFAMYYCQQHNKYPYTFGGGTKLEIK
B10: 4D1 (scFv, V domains shown)
VH: QVQLQQPGAELVRPGASVKLSCKASGYQFTSYWMNWVKQRPDQGLEWIGRIDPYDSETHYNQKFKDKAILTVDKSSSTAYMQLSSLTSEDSAVYYCARGNWDDYWGQGTTLTVSS
VL: DVQITQSPSYLAASPGETITINCRASKSISKDLAWYQEKPGKTNKLLIYSGSTLQSGIPSRFSGSGSGTDFTLTISSLEPEDFAMYYCQQHNKYPYTFGGGTKLEIK
notes: also called 抗体4D1
B11: 5E10 (scFv, V domains shown)
VH: QVQLQQPGAELVRPGASVKLSCKASGYTFTSYWMNWVKQRPDQGLEWIGRIDPYDSETHYNQKFKDKAILTVDKSSSTAYMQLSSLTSEDSAVYYCARGNWDDYWGQGTTLTVSS
VL: DVQITQSPSYLAASPGETITINCRASKSISKDLAWYQEKPGKTNKLLIYSSSQRLSGIPSRFSGSGSGTDFTLTISSLEPEDFAMYYCQQHNKYPYTFGGGTKLEIK
B12: 8A7 (scFv, V domains shown)
VH: QVQLQQPGAELVRPGASVKLSCKASGYTFTSYWMNWVKQRPDQGLEWIGRIDPYDSETHYNQKFKDKAILTVDKSSSTAYMQLSSLTSEDSAVYYCARGNWDDYWGQGTTLTVSS
VL: DVQITQSPSYLAASPGETITINCRASKSISKDLAWYQEKPGKTNKLLIYSGSTLQSGIPSRFSGSGSGTDFTLTISSLEPEDFAMYYCQQTNRYPYTFGGGTKLEIK
notes: 31 is used here; also called 抗体8A7
B13: 5B1 (scFv, V domains shown)
VH: QVQLQQPGAELVRPGASVKLSCKASGYTFTSYWMNWVKQRPDQGLEWIGRIDPYDSETHYNQKFKDKAILTVDKSSSTAYMQLSSLTSEDSAVYYCARGNWDDYWGQGTTLTVSS
VL: DVQITQSPSYLAASPGETITINCRASKSISKDLAWYQEKPGKTNKLLIYSGSTLQSGIPSRFSGSGSGTDFTLTISSLEPEDFAMYYCQQHNRYPYTFGGGTKLEIK
B14: 4C3 (scFv, V domains shown)
VH: QVQLQQPGAELVRPGASVKLSCKASGYTFTQYWMNWVKQRPDQGLEWIGRIDPFDSETHYNLQFKDKAILTVDKSSSTAYMQLSSLTSEDSAVYYCARGNWDDYWGQGTTLTVSS
VL: DVQITQSPSYLAASPGETITINCRASKSISKDLAWYQEKPGKTNKLLIYSGSTLQSGIPSRFSGSGSGTDFTLTISSLEPEDFAMYYCQQHNKYPYTFGGGTKLEIK

Several values for one entry are separate records, joined by “and”; a condition that tells them apart may be missing. Identical values can stand only once.

The test has as its target T1, CD123-his-biotin抗原 (Homo sapiens (Human), UniProt P26951 19-305, biotin label (site not stated)).
T1 construct: Bought from SinoBiological and biotin-labelled; also called CD123-Biotin; CD123抗原; not shown: his tag
T1 sequence: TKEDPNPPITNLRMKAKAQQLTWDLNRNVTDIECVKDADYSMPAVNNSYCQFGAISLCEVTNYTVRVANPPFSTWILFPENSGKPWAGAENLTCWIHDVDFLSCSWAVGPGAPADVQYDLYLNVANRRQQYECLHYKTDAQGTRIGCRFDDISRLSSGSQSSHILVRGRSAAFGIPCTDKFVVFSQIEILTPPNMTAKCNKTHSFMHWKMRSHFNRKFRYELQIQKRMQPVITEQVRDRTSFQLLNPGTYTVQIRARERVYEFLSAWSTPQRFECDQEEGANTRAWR
Briefly: BLI (Octet RED96), CD123-Biotin on AR2G sensor, scFv periplasmic extract as analyte. Set-up: 响应: unit not given here.
For orientation: koff means the rate constant with which the complex falls apart. As to B1, the koff was 0.000206 s⁻¹ and 0.00021 s⁻¹ and 0.000209 s⁻¹ and 0.000207 s⁻¹.
B2 showed a koff of 0.000192 s⁻¹ and a 响应 of 0.425.
B3 gave a koff of 0.000318 s⁻¹ and a 响应 of 0.163.
The like results for B4 were, in that order, 0.000127 s⁻¹ and 0.463.
For B5, the koff was 2.47e-05 s⁻¹ and the 响应 is 0.486.
The like results for B6 were, in that order, 0.00014 s⁻¹ and 0.145.
B7 registered a koff of 0.000323 s⁻¹ and a 响应 of 0.106.
B8 gave a koff of 0.000502 s⁻¹ and a 响应 of 0.177.
Molecule B9 gave a koff of 0.000558 s⁻¹ and a 响应 of 0.207.
B10 came in with a koff of 0.000198 s⁻¹ and a 响应 of 0.25.
The like results for B11 were, in that order, 0.000254 s⁻¹ and 0.24.
The molecule B12 showed a koff of 0.000178 s⁻¹ and a 响应 of 0.471.
B13 came in with a koff of 0.00012 s⁻¹ and a 响应 of 0.422.
For B14, the koff was 0.000322 s⁻¹ and the 响应 was 0.083.

Values taken from CN107840889A (SHANGHAI JIBEI BIOLOGICAL TECH CO LTD, dated 2018).
